# Data reported in patent US20200270365A1.
# Columns and labels:
# biotin-PCSK9-his (human) [1] = target: biotin-PCSK9-his (human) (UniProt Q8NBP7); assay: competitive ELISA, one antibody coated, biotin-PCSK9-his + 50-fold competing antibody; competitor h011-3133-YTE
# biotin-PCSK9-his (human) [2] = target: biotin-PCSK9-his (human) (UniProt Q8NBP7); assay: competitive ELISA, one antibody coated, biotin-PCSK9-his + 50-fold competing antibody; competitor 21B12 (itself)
substance,measurement,setting,value
"21B12 (U.S. Pat. No. 8,030,457B2) (antibody)",IR (%),biotin-PCSK9-his (human) [1],3.01%
same,IR (%),biotin-PCSK9-his (human) [2],97.8%
